Reference: patent publication US7662770

Target: EphA2 receptor tyrosine kinase, endogenous in MCF-10A and MDA-MB-231 human mammary epithelial cells (UniProt P29317)
UniProt P29317, sequence (P29317 whole entry, looked up): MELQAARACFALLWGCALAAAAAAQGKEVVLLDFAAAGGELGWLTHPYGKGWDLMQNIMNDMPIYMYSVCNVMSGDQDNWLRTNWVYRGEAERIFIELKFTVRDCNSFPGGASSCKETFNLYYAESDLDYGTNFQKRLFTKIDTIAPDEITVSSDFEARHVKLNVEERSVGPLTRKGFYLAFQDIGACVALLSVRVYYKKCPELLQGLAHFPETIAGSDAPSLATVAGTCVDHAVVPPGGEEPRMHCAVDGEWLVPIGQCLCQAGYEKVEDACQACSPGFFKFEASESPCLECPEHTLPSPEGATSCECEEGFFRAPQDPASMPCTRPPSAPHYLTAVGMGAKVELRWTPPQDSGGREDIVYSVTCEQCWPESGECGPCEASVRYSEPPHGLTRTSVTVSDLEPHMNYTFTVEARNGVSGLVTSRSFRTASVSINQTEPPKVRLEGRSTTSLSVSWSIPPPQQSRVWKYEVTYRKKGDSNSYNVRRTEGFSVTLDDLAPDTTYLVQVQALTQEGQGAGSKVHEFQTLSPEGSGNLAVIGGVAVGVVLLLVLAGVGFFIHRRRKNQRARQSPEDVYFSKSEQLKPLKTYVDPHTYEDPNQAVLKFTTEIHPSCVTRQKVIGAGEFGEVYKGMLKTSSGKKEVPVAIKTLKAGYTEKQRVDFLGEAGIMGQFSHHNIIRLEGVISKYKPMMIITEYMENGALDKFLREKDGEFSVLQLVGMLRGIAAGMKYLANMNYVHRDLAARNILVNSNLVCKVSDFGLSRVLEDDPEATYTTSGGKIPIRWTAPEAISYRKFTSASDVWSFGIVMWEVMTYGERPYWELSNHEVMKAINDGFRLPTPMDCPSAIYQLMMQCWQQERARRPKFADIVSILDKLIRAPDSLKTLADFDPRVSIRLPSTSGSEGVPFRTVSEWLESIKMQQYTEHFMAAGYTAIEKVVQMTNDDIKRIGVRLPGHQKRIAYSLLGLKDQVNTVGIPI

“purified LMW-PTP protein (used in the in vitro dephosphorylation assays)” was tested, and the “dephosphorylation of immunoprecipitated EphA2 (Western blot with PY20 and 4G10)” value was “purified LMW-PTP could dephosphorylate EphA2 in a dose and time-dependent manner”.
